B1: NET1 (parent)
chain: IKRTIRVLDVNNQSFREQEEPSNK

Variants of: B1
Experiment: protein stability index of a GFP-peptide fusion (GPS, HEK-293T) (PSI 1-6); higher = more stable
Conditions: c terminus: a fixed tail appended
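Note: lentivirally expressed fusions sorted by FACS into six bins by GFP to DsRed ratio, PSI derived from sequencing read proportions per bin multiplied by bin number.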

Going from IKRTIRVLEVNNQSFREQEEPSNK [D9E] to IKRTIRVLQVNNQSFREQEEPSNK [D9Q], the protein stability index falls from 3.91 to 3.26.

Compared with IKRTIRVLMVNNQSFREQEEPSNK [D9M], IKRTIRVLPVNNQSFREQEEPSNK [D9P] is higher in protein stability index: 1.91 for the first, 4.36 for the second.

First: IKRTIRVLCVNNQSFREQEEPSNK [D9C]
Second: IKRTIRVLYVNNQSFREQEEPSNK [D9Y]
The protein stability index of the first is higher: 2.94 for the first, 2.41 for the second.

Compared with IKRTIRVLNVNNQSFREQEEPSNK [D9N], IKRTIRVLGVNNQSFREQEEPSNK [D9G] is lower in protein stability index: 4.11 for the first, 3.7 for the second.

Compared with IKRTIRVLFVNNQSFREQEEPSNK [D9F], IKRTIRVLWVNNQSFREQEEPSNK [D9W] is higher in protein stability index: 2.24 for the first, 2.89 for the second.

Compared with IKRTIRVLRVNNQSFREQEEPSNK [D9R], IKRTIRVLLVNNQSFREQEEPSNK [D9L] is lower in protein stability index: 3.54 for the first, 1.77 for the second.

Going from IKRTIRVLIVNNQSFREQEEPSNK [D9I] to IKRTIRVLAVNNQSFREQEEPSNK [D9A], the protein stability index rises from 1.58 to 3.31.

Going from IKRTIRVLTVNNQSFREQEEPSNK [D9T] to IKRTIRVLHVNNQSFREQEEPSNK [D9H], the protein stability index rises from 2.9 to 4.23.

First: IKRTIRVLSVNNQSFREQEEPSNK [D9S]
Second: IKRTIRVLKVNNQSFREQEEPSNK [D9K]
The protein stability index of the first is lower: 3.5 for the first, 4.44 for the second.

Compared with IKRTIRVLDVNNHSFREQEEPSNK [Q13H], IKRTIRVLDVNNFSFREQEEPSNK [Q13F] is lower in protein stability index: 3.28 for the first, 2.72 for the second.

Compared with IKRTIRVLDVNNESFREQEEPSNK [Q13E], IKRTIRVLDVNNPSFREQEEPSNK [Q13P] is lower in protein stability index: 4.26 for the first, 3.35 for the second.

Going from IKRTIRVLDVNNMSFREQEEPSNK [Q13M] to IKRTIRVLDVNNASFREQEEPSNK [Q13A], the protein stability index rises from 3.8 to 4.18.

Compared with IKRTIRVLDVNNRSFREQEEPSNK [Q13R], IKRTIRVLDVNNVSFREQEEPSNK [Q13V] is higher in protein stability index: 3.27 for the first, 3.67 for the second.

Compared with IKRTIRVLDVNNSSFREQEEPSNK [Q13S], IKRTIRVLDVNNTSFREQEEPSNK [Q13T] is lower in protein stability index: 4.19 for the first, 3.37 for the second.

First: IKRTIRVLDVNNISFREQEEPSNK [Q13I]
Second: IKRTIRVLDVNNWSFREQEEPSNK [Q13W]
The protein stability index of the first is higher: 2.99 for the first, 2.51 for the second.

Going from IKRTIRVLDVNNDSFREQEEPSNK [Q13D] to IKRTIRVLDVNNKSFREQEEPSNK [Q13K], the protein stability index rises from 3.56 to 3.7.

Going from IKRTIRVLDVNNNSFREQEEPSNK [Q13N] to IKRTIRVLDVNNLSFREQEEPSNK [Q13L], the protein stability index falls from 3.69 to 2.33.

First: IKRTIRVLDVNNYSFREQEEPSNK [Q13Y]
Second: IKRTIRVLDVNNGSFREQEEPSNK [Q13G]
The protein stability index of the first is lower: 2.04 for the first, 3.8 for the second.

First: IKRTIRVLDVNNCSFREQEEPSNK [Q13C]
Second: IKRTIRVVDVNNQSFREQEEPSNK [L8V]
The protein stability index of the first is lower: 3.01 for the first, 3.94 for the second.

First: IKRTIRVADVNNQSFREQEEPSNK [L8A]
Second: IKRTIRVFDVNNQSFREQEEPSNK [L8F]
The protein stability index of the first is higher: 4.45 for the first, 3.83 for the second.

First: IKRTIRVEDVNNQSFREQEEPSNK [L8E]
Second: IKRTIRVPDVNNQSFREQEEPSNK [L8P]
The protein stability index of the first is higher: 5.07 for the first, 4.93 for the second.

Compared with IKRTIRVCDVNNQSFREQEEPSNK [L8C], IKRTIRVWDVNNQSFREQEEPSNK [L8W] is lower in protein stability index: 4.93 for the first, 3.39 for the second.

Going from IKRTIRVTDVNNQSFREQEEPSNK [L8T] to IKRTIRVRDVNNQSFREQEEPSNK [L8R], the protein stability index falls from 4.72 to 4.68.

First: IKRTIRVYDVNNQSFREQEEPSNK [L8Y]
Second: IKRTIRVGDVNNQSFREQEEPSNK [L8G]
The protein stability index of the first is lower: 3.96 for the first, 4.99 for the second.

Compared with IKRTIRVMDVNNQSFREQEEPSNK [L8M], IKRTIRVKDVNNQSFREQEEPSNK [L8K] is higher in protein stability index: 3.75 for the first, 4.46 for the second.

First: IKRTIRVIDVNNQSFREQEEPSNK [L8I]
Second: IKRTIRVQDVNNQSFREQEEPSNK [L8Q]
The protein stability index of the first is lower: 2.96 for the first, 4.41 for the second.

First: IKRTIRVDDVNNQSFREQEEPSNK [L8D]
Second: IKRTIRVHDVNNQSFREQEEPSNK [L8H]
The protein stability index of the first is lower: 4.92 for the first, 4.93 for the second.

First: IKRTIRVSDVNNQSFREQEEPSNK [L8S]
Second: IKRTIRVNDVNNQSFREQEEPSNK [L8N]
The protein stability index of the first is lower: 4.44 for the first, 4.57 for the second.

Compared with IKRTIRVLDVNLQSFREQEEPSNK [N12L], IKRTIRVLDVNKQSFREQEEPSNK [N12K] is lower in protein stability index: 3.25 for the first, 2.72 for the second.

First: IKRTIRVLDVNTQSFREQEEPSNK [N12T]
Second: IKRTIRVLDVNYQSFREQEEPSNK [N12Y]
The protein stability index of the first is higher: 3.3 for the first, 3.21 for the second.

Going from IKRTIRVLDVNRQSFREQEEPSNK [N12R] to IKRTIRVLDVNAQSFREQEEPSNK [N12A], the protein stability index rises from 3.14 to 3.38.

First: IKRTIRVLDVNIQSFREQEEPSNK [N12I]
Second: IKRTIRVLDVNVQSFREQEEPSNK [N12V]
The protein stability index of the first is higher: 3.51 for the first, 2.97 for the second.

Going from IKRTIRVLDVNPQSFREQEEPSNK [N12P] to IKRTIRVLDVNWQSFREQEEPSNK [N12W], the protein stability index falls from 3.41 to 2.63.

Compared with IKRTIRVLDVNDQSFREQEEPSNK [N12D], IKRTIRVLDVNCQSFREQEEPSNK [N12C] is lower in protein stability index: 4.21 for the first, 3.16 for the second.

Compared with IKRTIRVLDVNFQSFREQEEPSNK [N12F], IKRTIRVLDVNSQSFREQEEPSNK [N12S] is higher in protein stability index: 2.7 for the first, 2.82 for the second.

Compared with IKRTIRVLDVNGQSFREQEEPSNK [N12G], IKRTIRVLDVNQQSFREQEEPSNK [N12Q] is lower in protein stability index: 4.14 for the first, 4.08 for the second.

Compared with IKRTIRVLDVNHQSFREQEEPSNK [N12H], IKRTIRVLDVNEQSFREQEEPSNK [N12E] is higher in protein stability index: 3.83 for the first, 3.98 for the second.

Compared with IKRTIRVLDVNMQSFREQEEPSNK [N12M], IKRTIRVLDVNNQSFKEQEEPSNK [R16K] is higher in protein stability index: 3.29 for the first, 4.21 for the second.

Going from IKRTIRVLDVNNQSFQEQEEPSNK [R16Q] to IKRTIRVLDVNNQSFFEQEEPSNK [R16F], the protein stability index rises from 3.43 to 3.47.

Going from IKRTIRVLDVNNQSFSEQEEPSNK [R16S] to IKRTIRVLDVNNQSFHEQEEPSNK [R16H], the protein stability index falls from 4.06 to 3.69.

First: IKRTIRVLDVNNQSFNEQEEPSNK [R16N]
Second: IKRTIRVLDVNNQSFDEQEEPSNK [R16D]
The protein stability index of the first is higher: 4.57 for the first, 4.47 for the second.

Compared with IKRTIRVLDVNNQSFEEQEEPSNK [R16E], IKRTIRVLDVNNQSFIEQEEPSNK [R16I] is lower in protein stability index: 3.94 for the first, 3.83 for the second.

Compared with IKRTIRVLDVNNQSFLEQEEPSNK [R16L], IKRTIRVLDVNNQSFYEQEEPSNK [R16Y] is higher in protein stability index: 3.35 for the first, 3.4 for the second.

Compared with IKRTIRVLDVNNQSFVEQEEPSNK [R16V], IKRTIRVLDVNNQSFMEQEEPSNK [R16M] is lower in protein stability index: 3.96 for the first, 3.41 for the second.

First: IKRTIRVLDVNNQSFCEQEEPSNK [R16C]
Second: IKRTIRVLDVNNQSFAEQEEPSNK [R16A]
The protein stability index of the first is lower: 3.3 for the first, 4 for the second.

Compared with IKRTIRVLDVNNQSFTEQEEPSNK [R16T], IKRTIRVLDVNNQSFGEQEEPSNK [R16G] is higher in protein stability index: 3.85 for the first, 3.94 for the second.

Going from IKRTIRVLDVNNQSFPEQEEPSNK [R16P] to IKRTIRVLDVNNQSFWEQEEPSNK [R16W], the protein stability index falls from 3.42 to 2.07.

From the supplement of paper PMC10567573
